± gives the uncertainty stated by the source.
B1: Nuclear receptor subfamily 4 group A member 2, residues 260 to 336; numbered along this chain, P43354 (parent)
chain: EGLCAVCGDNAACQHYGVRTCEGCKGFFKRTVQKNAKYVCLANKNCPVDKRRRNRCQYCRFQKCLAVGMVKEVVRTD

Variants of: B1
Test: abundance fitness (aPCA) (normalised: wild type 0, dead -1); higher = more abundant; growth selection in yeast, the domain comes from the species named
Details: Homo sapiens
With EGLCAVCGDNAACQHYGVRTCEGCKGFFCRTVQKNAKYVCLANKNCPVDKRRRNRCQYCRFQKCLAVGMVKEVVRTD [K29C] the abundance fitness was -0.239 ± 0.27.
EGLCAVCGDNAACQHYGVRTCEGCKGFFQRTVQKNAKYVCLANKNCPVDKRRRNRCQYCRFQKCLAVGMVKEVVRTD [K29Q] showed an abundance fitness of -0.097 ± 0.12.
In the case of EGLCAVCGDNAACQHQGVRTCEGCKGFFKRTVQKNAKYVCLANKNCPVDKRRRNRCQYCRFQKCLAVGMVKEVVRTD [Y16Q], the abundance fitness is reported as 0.025 ± 0.12.
EGLCAVCGDNAACQHAGVRTCEGCKGFFKRTVQKNAKYVCLANKNCPVDKRRRNRCQYCRFQKCLAVGMVKEVVRTD [Y16A] gave an abundance fitness of 0.049 ± 0.065.
Variant EGLCAVCGDNAACQHWGVRTCEGCKGFFKRTVQKNAKYVCLANKNCPVDKRRRNRCQYCRFQKCLAVGMVKEVVRTD [Y16W] has an abundance fitness of -0.351 ± 0.17.
EGLCAVCGDNAACQHYGVRTCEGCKGFFKRTVQKNAKYVCLANKNCPVDKRRRNRCQYCRFQKCLAVGMVPEVVRTD [K71P] gave an abundance fitness of 0.141 ± 0.24.
For EGLCAVCGDNAACQHYGVRTCEGCKGFFKSTVQKNAKYVCLANKNCPVDKRRRNRCQYCRFQKCLAVGMVKEVVRTD [R30S], the abundance fitness was -0.086 ± 0.092.
EGLCAVCGDNAACQHYGVRTCEGCKGFFKRTVQKNAKYVCLANKNCPWDKRRRNRCQYCRFQKCLAVGMVKEVVRTD [V48W] showed an abundance fitness of -0.258 ± 0.05.
With EGLCAVCGDNAACQHYGVRTCEGCKGFFKRTVQKNAKYVCLANKNCPCDKRRRNRCQYCRFQKCLAVGMVKEVVRTD [V48C] the abundance fitness was -0.156 ± 0.067.
In the case of EGLCAVCGDNAACQHYGVRTCEGCKGFFKRTVQKNAKYVCLANKNCPLDKRRRNRCQYCRFQKCLAVGMVKEVVRTD [V48L], the abundance fitness is reported as -0.175 ± 0.067.
Work on EGLCAVCGDNAACQHYGVRTCEGCKGFFKRTVQKNAKYVCLANKNCPVDKRRRNRCQYCRFQKCLAVGMVKEVVMTD [R75M] yielded an abundance fitness of 0.019 ± 0.13.
In the case of EGLCAVCGDNAACQHYGVRTCEGCKGFFKRTVQKNAKYVCLANKNCPVDKRRRNRCQYCRFQKCLAVGMVKEVVATD [R75A], the abundance fitness is reported as -0.01 ± 0.075.
For EGLCAVCGDNAACQHYGVRTCEGCKGFFKRTVQKNAKYVCLANKNCPVDKRRRNRCQYCRFQKCLAVGMVKEVVQTD [R75Q], the abundance fitness was 0.065 ± 0.26.
Work on EGLCAVCGDNAACQHYGVRTCEGCKGFFKRTVQKNAKYVCLTNKNCPVDKRRRNRCQYCRFQKCLAVGMVKEVVRTD [A42T] yielded an abundance fitness of 0.002 ± 0.13.
EGLCAVCGDNAACQHYGVRTLEGCKGFFKRTVQKNAKYVCLANKNCPVDKRRRNRCQYCRFQKCLAVGMVKEVVRTD [C21L] gave an abundance fitness of -0.725 ± 0.38.
EGLCAVCGDNAACQHYGVRTQEGCKGFFKRTVQKNAKYVCLANKNCPVDKRRRNRCQYCRFQKCLAVGMVKEVVRTD [C21Q] gave an abundance fitness of 0.041 ± 0.45.
Variant EGLCAVCGDNAACQHYGVRTREGCKGFFKRTVQKNAKYVCLANKNCPVDKRRRNRCQYCRFQKCLAVGMVKEVVRTD [C21R] has an abundance fitness of -0.981 ± 0.33.
With EGLCAVCGDNAACQHYGVRTAEGCKGFFKRTVQKNAKYVCLANKNCPVDKRRRNRCQYCRFQKCLAVGMVKEVVRTD [C21A] the abundance fitness was -0.632 ± 0.33.
For EGLCAVCGDNAACQHYGVRTCEGCKGFFKRTVQKNADYVCLANKNCPVDKRRRNRCQYCRFQKCLAVGMVKEVVRTD [K37D], the abundance fitness was -0.07 ± 0.27.
Work on EGLCAVCGDNAACQHYGVRTCEGCKGFFKRTVQKNACYVCLANKNCPVDKRRRNRCQYCRFQKCLAVGMVKEVVRTD [K37C] yielded an abundance fitness of -0.134 ± 0.25.
With EGLCAVCGDNAACQHYGVRTCEGCKGFFKRTVQKNAKYVCLARKNCPVDKRRRNRCQYCRFQKCLAVGMVKEVVRTD [N43R] the abundance fitness was -0.014 ± 0.15.
EGLCAVCGDNAACQHYGVRTCEGCKGFFKRTVQKNAKYVCLAEKNCPVDKRRRNRCQYCRFQKCLAVGMVKEVVRTD [N43E] gave an abundance fitness of -0.198 ± 0.16.
With EGLCAVCGDNAACQHYGVRTCEGCKGFFKRTVQKNAKYVCLALKNCPVDKRRRNRCQYCRFQKCLAVGMVKEVVRTD [N43L] the abundance fitness was -0.059 ± 0.14.
For EGLCAVCGDNAARQHYGVRTCEGCKGFFKRTVQKNAKYVCLANKNCPVDKRRRNRCQYCRFQKCLAVGMVKEVVRTD [C13R], the abundance fitness was -0.103 ± 0.075.
Variant EGLCAVCGDNAAMQHYGVRTCEGCKGFFKRTVQKNAKYVCLANKNCPVDKRRRNRCQYCRFQKCLAVGMVKEVVRTD [C13M] has an abundance fitness of 0.239 ± 0.08.
EGLCAVCGDNAACQHYGVRTCEGCKGFFKRTVQKNAKYVCLANKNCPVDKRRRVRCQYCRFQKCLAVGMVKEVVRTD [N54V] showed an abundance fitness of -0.094 ± 0.052.
With EGLCAVCGDNAACQHYGVRTCEGCKGFFKRTVQKNAKYVCLANKNCPVDKRRRNRCQYCRFQKCLAVMMVKEVVRTD [G68M] the abundance fitness was -0.085 ± 0.29.
Work on EGLCAVCGDNAACQHYGVRTCEGCKGFFKRTVQKNAKYVCLANKNCPVDKRRRNRCQYCRFQKCLAVGMVKEVIRTD [V74I] yielded an abundance fitness of 0.091 ± 0.13.
Work on EGLCAVCGDNAACQHYGVRTCEGCKGFFKRTVQKNAKYVCLANKNCPVDKRRRNRCQYCRFQKCLAVGMVKEVDRTD [V74D] yielded an abundance fitness of 0.131 ± 0.13.
In the case of EGLCRVCGDNAACQHYGVRTCEGCKGFFKRTVQKNAKYVCLANKNCPVDKRRRNRCQYCRFQKCLAVGMVKEVVRTD [A5R], the abundance fitness is reported as -0.026 ± 0.25.
For EGLCAVCGDNAACQHYGVRTCEGCKGFFKRTVQKNAKYVCLANKNCPVDKRRRNRCQYCRFQKCLAVGMWKEVVRTD [V70W], the abundance fitness was -0.255 ± 0.055.
Variant EGLCAVCGDNAACQHYGVRTCEGCKGFFKRTVQKNAKYVCLANKNCPVDKRRRNRCWYCRFQKCLAVGMVKEVVRTD [Q57W] has an abundance fitness of -0.28 ± 0.074.
For EGLCAVCGDNAACQHYGVRTCEGCKGFFKRTVQKNAKYVCLANKNCPVVKRRRNRCQYCRFQKCLAVGMVKEVVRTD [D49V], the abundance fitness was -0.326 ± 0.049.
EGLCAVCGDNAACQHYGVRTCEGCKGFFKRTVQKNAKYVCLANKNCPVRKRRRNRCQYCRFQKCLAVGMVKEVVRTD [D49R] gave an abundance fitness of -0.22 ± 0.073.
Work on EGLCAVCGDNAACQHYGVRTCEGCKGFFKRTVQKNAKYVCLANKNCPVGKRRRNRCQYCRFQKCLAVGMVKEVVRTD [D49G] yielded an abundance fitness of -0.073 ± 0.035.

— the Human Domainome abundance scans (Beltran et al. 2025)
